Results published in paper PMC11181998.

Key:
[1] = molecular target: ACE2 receptor (UniProt Q9BYF1); experiment: ELISA; competitive ELISA of ACE2 binding; AH-adsorbed DCFHP incubated overnight at 40 °C, against a reference freshly adsorbed to AH
[2] = molecular target: ACE2 receptor (UniProt Q9BYF1); experiment: ELISA; competitive ELISA of ACE2 binding; AH-adsorbed DCFHP incubated overnight at 50 °C, against a reference freshly adsorbed to AH
[3] = molecular target: ACE2 receptor (UniProt Q9BYF1); experiment: ELISA; competitive ELISA of ACE2 binding; DCFHP samples (in solution, or with AH and 0, 20 or 200 mM sodium phosphate) stored at 4 °C (3-21 days, 1 month, or up to 4 weeks) before the assay
[4] = molecular target: ACE2 receptor (UniProt Q9BYF1); experiment: ELISA; competitive ELISA of ACE2 binding; DCFHP at 50 mcg/mL in 20 mM Tris, 150 mM NaCl, 5% Sucrose, pH 7.5, in solution or adsorbed to 1.5 mg/mL Alhydrogel (AH); time zero or freshly adsorbed; read against a DCFHP reference sample; who was immobilised is told only in the Supplemental methods

UniProt Q9BYF1, sequence (Q9BYF1 18-740 limits assumed): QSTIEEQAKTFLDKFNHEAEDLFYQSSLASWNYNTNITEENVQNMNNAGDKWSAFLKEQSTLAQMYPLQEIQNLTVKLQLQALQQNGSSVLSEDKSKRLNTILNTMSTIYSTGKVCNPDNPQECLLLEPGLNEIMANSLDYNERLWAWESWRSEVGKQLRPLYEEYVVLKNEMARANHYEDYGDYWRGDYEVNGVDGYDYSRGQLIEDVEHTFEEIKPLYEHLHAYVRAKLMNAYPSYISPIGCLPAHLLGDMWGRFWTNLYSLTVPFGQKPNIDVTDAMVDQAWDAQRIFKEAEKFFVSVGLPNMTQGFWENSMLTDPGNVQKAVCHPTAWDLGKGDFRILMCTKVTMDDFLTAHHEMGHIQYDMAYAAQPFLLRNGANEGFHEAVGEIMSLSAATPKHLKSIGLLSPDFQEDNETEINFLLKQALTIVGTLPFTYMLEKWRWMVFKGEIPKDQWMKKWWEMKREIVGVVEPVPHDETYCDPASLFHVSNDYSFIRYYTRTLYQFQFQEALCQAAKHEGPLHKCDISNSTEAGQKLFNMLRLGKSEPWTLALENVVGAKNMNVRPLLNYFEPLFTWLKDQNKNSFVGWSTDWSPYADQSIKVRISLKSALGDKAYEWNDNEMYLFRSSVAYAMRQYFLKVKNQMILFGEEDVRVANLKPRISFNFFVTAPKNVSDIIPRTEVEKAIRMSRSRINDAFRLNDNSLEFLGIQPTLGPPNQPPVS

Q: How did the loss of ACE2 binding after overnight at 40 °C [1] turn out when “Delta-C70-Ferritin-HexaPro (DCFHP), SARS-CoV-2 spike ferritin nanoparticle vaccine antigen, produced in Expi293 cells” was run?
A: 60%

Q: What about the loss of ACE2 binding after overnight at 50 °C [2] of the same substance?
A: 80%

Q: And the native antigen by ACE2 competitive ELISA after 1 month at 4 °C, AH with 0 mM phosphate [3]?
A: 80 µg

Q: And the native antigen by ACE2 competitive ELISA after 1 month at 4 °C, AH with 200 mM phosphate [3]?
A: 50 µg

Q: And the native antigen concentration by ACE2 competitive ELISA (target 50 mcg/mL), AH-adsorbed, stored at 4 °C for 3-21 days [3]?
A: 75 µg/mL

Q: What about the native antigen concentration by ACE2 competitive ELISA (target 50 mcg/mL), freshly adsorbed to AH, time zero [4] of the same substance?
A: 48 µg/mL
